Test results taken from US11525133 (dated 2022).

Target: p53-TPR2
Assay: ITC

B1: Mdm2 N-terminal domain (other)
chain: SQIPASEQETLVRPKPLLLKLLKSVGAQKDTYTMKEVLFYLGQYIMTKRLYDEKQQHIVYCSNDLLGDLFGVPSFSVKEHRKIYTMIYRNLVVVNQQESSDSGTSVSEN
Kd: 54 nM
